T1: human corticotrophin releasing hormone receptor type 2 (CRHR2) (human, UniProt Q13324 1-411)
T1 sequence (looked up): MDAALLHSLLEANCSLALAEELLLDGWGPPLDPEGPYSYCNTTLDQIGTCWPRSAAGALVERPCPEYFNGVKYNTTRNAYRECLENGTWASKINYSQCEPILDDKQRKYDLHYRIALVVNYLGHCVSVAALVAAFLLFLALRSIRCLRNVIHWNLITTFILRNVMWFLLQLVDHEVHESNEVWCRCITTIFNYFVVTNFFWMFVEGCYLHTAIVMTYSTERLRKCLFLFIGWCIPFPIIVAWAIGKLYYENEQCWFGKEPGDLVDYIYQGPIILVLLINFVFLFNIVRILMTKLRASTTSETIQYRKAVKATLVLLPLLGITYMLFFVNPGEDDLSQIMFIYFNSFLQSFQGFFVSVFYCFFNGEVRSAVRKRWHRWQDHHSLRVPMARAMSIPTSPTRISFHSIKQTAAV

B1: Cys-variant of stresscopin peptide with N-Ethylsuccinimide (NES) reactive group SEQ ID NO: 43 (peptide)
peptide: TKFTLSLDVPTNIMNLLFNIAKAKNLRAQAAANAC(Succinimide(1-Et,3-yl))LMAQI-NH2
modifications: N-terminus assumed
SMILES: CC[C@H](C)[C@H](NC(=O)[C@H](CCC(N)=O)NC(=O)[C@H](C)NC(=O)[C@H](CCSC)NC(=O)[C@H](CC(C)C)NC(=O)[C@H](CSC1CC(=O)N(CC)C1=O)NC(=O)[C@H](C)NC(=O)[C@H](CC(N)=O)NC(=O)[C@H](C)NC(=O)[C@H](C)NC(=O)[C@H](C)NC(=O)[C@H](CCC(N)=O)NC(=O)[C@H](C)NC(=O)[C@H](CCCNC(=N)N)NC(=O)[C@H](CC(C)C)NC(=O)[C@H](CC(N)=O)NC(=O)[C@H](CCCCN)NC(=O)[C@H](C)NC(=O)[C@H](CCCCN)NC(=O)[C@H](C)NC(=O)[C@@H](NC(=O)[C@H](CC(N)=O)NC(=O)[C@H](Cc1ccccc1)NC(=O)[C@H](CC(C)C)NC(=O)[C@H](CC(C)C)NC(=O)[C@H](CC(N)=O)NC(=O)[C@H](CCSC)NC(=O)[C@@H](NC(=O)[C@H](CC(N)=O)NC(=O)[C@@H](NC(=O)[C@@H]1CCCN1C(=O)[C@@H](NC(=O)[C@H](CC(=O)O)NC(=O)[C@H](CC(C)C)NC(=O)[C@H](CO)NC(=O)[C@H](CC(C)C)NC(=O)[C@@H](NC(=O)[C@H](Cc1ccccc1)NC(=O)[C@H](CCCCN)NC(=O)[C@@H](N)[C@@H](C)O)[C@@H](C)O)C(C)C)[C@@H](C)O)[C@@H](C)CC)[C@@H](C)CC)C(N)=O
B2: Cys-variant of stresscopin peptide with N-Ethylsuccinimide (NES) reactive group SEQ ID NO: 45 (peptide)
peptide: TKFTLSLDVPTNIMNLLFNIAKAKNLRAQAAC(Succinimide(1-Et,3-yl))NAHLMAQI-NH2
modifications: N-terminus assumed
SMILES: CC[C@H](C)[C@H](NC(=O)[C@H](CCC(N)=O)NC(=O)[C@H](C)NC(=O)[C@H](CCSC)NC(=O)[C@H](CC(C)C)NC(=O)[C@H](Cc1c[nH]cn1)NC(=O)[C@H](C)NC(=O)[C@H](CC(N)=O)NC(=O)[C@H](CSC1CC(=O)N(CC)C1=O)NC(=O)[C@H](C)NC(=O)[C@H](C)NC(=O)[C@H](CCC(N)=O)NC(=O)[C@H](C)NC(=O)[C@H](CCCNC(=N)N)NC(=O)[C@H](CC(C)C)NC(=O)[C@H](CC(N)=O)NC(=O)[C@H](CCCCN)NC(=O)[C@H](C)NC(=O)[C@H](CCCCN)NC(=O)[C@H](C)NC(=O)[C@@H](NC(=O)[C@H](CC(N)=O)NC(=O)[C@H](Cc1ccccc1)NC(=O)[C@H](CC(C)C)NC(=O)[C@H](CC(C)C)NC(=O)[C@H](CC(N)=O)NC(=O)[C@H](CCSC)NC(=O)[C@@H](NC(=O)[C@H](CC(N)=O)NC(=O)[C@@H](NC(=O)[C@@H]1CCCN1C(=O)[C@@H](NC(=O)[C@H](CC(=O)O)NC(=O)[C@H](CC(C)C)NC(=O)[C@H](CO)NC(=O)[C@H](CC(C)C)NC(=O)[C@@H](NC(=O)[C@H](Cc1ccccc1)NC(=O)[C@H](CCCCN)NC(=O)[C@@H](N)[C@@H](C)O)[C@@H](C)O)C(C)C)[C@@H](C)O)[C@@H](C)CC)[C@@H](C)CC)C(N)=O
B3: Cys-variant of stresscopin peptide with N-Ethylsuccinimide (NES) reactive group SEQ ID NO: 42 (peptide)
peptide: TKFTLSLDVPTNIMNLLFNIAKAKNLRAQAAANAHLMAQC(Succinimide(1-Et,3-yl))-NH2
modifications: N-terminus assumed
SMILES: CC[C@H](C)[C@H](NC(=O)[C@H](CC(N)=O)NC(=O)[C@H](Cc1ccccc1)NC(=O)[C@H](CC(C)C)NC(=O)[C@H](CC(C)C)NC(=O)[C@H](CC(N)=O)NC(=O)[C@H](CCSC)NC(=O)[C@@H](NC(=O)[C@H](CC(N)=O)NC(=O)[C@@H](NC(=O)[C@@H]1CCCN1C(=O)[C@@H](NC(=O)[C@H](CC(=O)O)NC(=O)[C@H](CC(C)C)NC(=O)[C@H](CO)NC(=O)[C@H](CC(C)C)NC(=O)[C@@H](NC(=O)[C@H](Cc1ccccc1)NC(=O)[C@H](CCCCN)NC(=O)[C@@H](N)[C@@H](C)O)[C@@H](C)O)C(C)C)[C@@H](C)O)[C@@H](C)CC)C(=O)N[C@@H](C)C(=O)N[C@@H](CCCCN)C(=O)N[C@@H](C)C(=O)N[C@@H](CCCCN)C(=O)N[C@@H](CC(N)=O)C(=O)N[C@@H](CC(C)C)C(=O)N[C@@H](CCCNC(=N)N)C(=O)N[C@@H](C)C(=O)N[C@@H](CCC(N)=O)C(=O)N[C@@H](C)C(=O)N[C@@H](C)C(=O)N[C@@H](C)C(=O)N[C@@H](CC(N)=O)C(=O)N[C@@H](C)C(=O)N[C@@H](Cc1c[nH]cn1)C(=O)N[C@@H](CC(C)C)C(=O)N[C@@H](CCSC)C(=O)N[C@@H](C)C(=O)N[C@@H](CCC(N)=O)C(=O)N[C@@H](CSC1CC(=O)N(CC)C1=O)C(N)=O
B4: Cys-variant of stresscopin peptide with N-Ethylsuccinimide (NES) reactive group SEQ ID NO: 44 (peptide)
peptide: TKFTLSLDVPTNIMNLLFNIAKAKNLRAQAAAC(Succinimide(1-Et,3-yl))AHLMAQI-NH2
modifications: N-terminus assumed
SMILES: CC[C@H](C)[C@H](NC(=O)[C@H](CCC(N)=O)NC(=O)[C@H](C)NC(=O)[C@H](CCSC)NC(=O)[C@H](CC(C)C)NC(=O)[C@H](Cc1c[nH]cn1)NC(=O)[C@H](C)NC(=O)[C@H](CSC1CC(=O)N(CC)C1=O)NC(=O)[C@H](C)NC(=O)[C@H](C)NC(=O)[C@H](C)NC(=O)[C@H](CCC(N)=O)NC(=O)[C@H](C)NC(=O)[C@H](CCCNC(=N)N)NC(=O)[C@H](CC(C)C)NC(=O)[C@H](CC(N)=O)NC(=O)[C@H](CCCCN)NC(=O)[C@H](C)NC(=O)[C@H](CCCCN)NC(=O)[C@H](C)NC(=O)[C@@H](NC(=O)[C@H](CC(N)=O)NC(=O)[C@H](Cc1ccccc1)NC(=O)[C@H](CC(C)C)NC(=O)[C@H](CC(C)C)NC(=O)[C@H](CC(N)=O)NC(=O)[C@H](CCSC)NC(=O)[C@@H](NC(=O)[C@H](CC(N)=O)NC(=O)[C@@H](NC(=O)[C@@H]1CCCN1C(=O)[C@@H](NC(=O)[C@H](CC(=O)O)NC(=O)[C@H](CC(C)C)NC(=O)[C@H](CO)NC(=O)[C@H](CC(C)C)NC(=O)[C@@H](NC(=O)[C@H](Cc1ccccc1)NC(=O)[C@H](CCCCN)NC(=O)[C@@H](N)[C@@H](C)O)[C@@H](C)O)C(C)C)[C@@H](C)O)[C@@H](C)CC)[C@@H](C)CC)C(N)=O
B5: Pegylated Cys-variant stresscopin-like peptide, NES-PEG MW20000 & DOUBLE-ENDED, SEQ ID NO: 98 (peptide)
peptide: TKFTLSLDVPTNIMNLLFNIAKAKNLRCQAAANAHLMAQI-NH2
modifications: not fully specified (residue 28); also: PEG with maleimide at both ends, peptide chains per PEG not given here

Where no end group is shown, it is not given here. The star is where a group is joined. Succinimide(1-Et,3-yl) = CCN1C(=O)CC(*)C1=O Where only a bound is given, the exact number is not on record here.

The target of this assay is T1, human corticotrophin releasing hormone …. Nature of the assay: cell-based or functional assay.
On to B1, for which the “Log DR” value is -0.32 log10 and the pA50 was 9.79 -log10(M).
Take TKFTLSLDVPTNIMNLLFNIAKAKNLRAQAAANAHLMAQC-NH2 [Cys-variant stresscopin-like peptide SEQ ID NO: 41]: the “Log DR” value was 2.07 log10 and the pA50 was 7.45 -log10(M).
The corresponding values for TKFTLSLDVPTNIMNLLFNIAKAKNLRAQAAANAHLMCQI (NES-PEG (about 20 kDa) on Cys 38; C-terminal amide (-NH2)) [Pegylated Cys-variant stresscopin-like peptide with NES linker and PEG about 20 kDa SEQ ID NO: 92] are 1.55 log10 and 8.12 -log10(M).
On the same counts, the results for TKFTLSLDVPTNIMNLLFNIAKAKNLRCQAAANAHLMAQI (NES-PEG MW2000 on Cys 28; C-terminal amide (-NH2)) [Pegylated Cys-variant stresscopin-like peptide, NES-PEG MW2000, SEQ ID NO: 95] are 0.43 log10 and 9.31 -log10(M).
The corresponding values for TKFTLSLDVPTNIMNLLFNIAKAKNLRAQAAANAHLMACI (NES-PEG (about 20 kDa) on Cys 39; C-terminal amide (-NH2)) [Pegylated Cys-variant stresscopin-like peptide with NES linker and PEG about 20 kDa SEQ ID NO: 93] are 1.47 log10 and 8.2 -log10(M).
Take TKFTLSLDVPTNIMNLLFNIAKAKNLRCQAAANAHLMAQI (NES-PEG MW5000 on Cys 28; C-terminal amide (-NH2)) [Pegylated Cys-variant stresscopin-like peptide, NES-PEG MW5000, SEQ ID NO: 96]: the “Log DR” value was 1 log10 and the pA50 was 8.74 -log10(M).
For TKFTLSLDVPTNIMNLLFNIAKAKNLRCQAAANAHLMAQI (NES-PEG MW30000 on Cys 28; C-terminal amide (-NH2)) [Pegylated Cys-variant stresscopin-like peptide, NES-PEG MW30000, SEQ ID NO: 99], the “Log DR” value came to 0.8 log10 and the pA50 is 8.94 -log10(M).
For TKFTLSLDVPTNIMNLLFNIAKAKNLRCQAAANAHLMAQI (NES-PEG MW12000 on Cys 28; C-terminal amide (-NH2)) [Pegylated Cys-variant stresscopin-like peptide, NES-PEG MW12000, SEQ ID NO: 97], the “Log DR” value was around 0.74 log10 and the pA50 was ~9 -log10(M).
As to TKFTLSLDVPTNIMNLLFNIAKAKNLRAQAAANAHLMAQC (NES-PEG (about 20 kDa) on Cys 40; C-terminal amide (-NH2)) [Pegylated Cys-variant stresscopin-like peptide with NES linker and PEG about 20 kDa SEQ ID NO: 94], the “Log DR” value was above 2.39 log10 and the pA50 is ~7 -log10(M).
On the same counts, the results for B2 are -0.01 log10 and 9.48 -log10(M).
With B3, the “Log DR” value is around 1.72 log10 and the pA50 was ~7.75 -log10(M).
On the same counts, the results for TKFTLSLDVPTNIMNLLFNIAKAKNLRAQAAANAHLMACI-NH2 [Cys-variant stresscopin-like peptide SEQ ID NO: 40] are 0.55 log10 and 9.08 -log10(M).
As to B4, the “Log DR” value was around 1.97 log10 and the pA50 is ~7.5 -log10(M).
For B5, the “Log DR” value worked out at 0.18 log10 and the pA50 was 9.5 -log10(M).

Source of the values: patent publication US20110105397A1, “METHOD FOR TREATING HEART FAILURE WITH STRESSCOPIN-LIKE PEPTIDES” (priority 2009, published 2011).
